Reference: US20040121326A1 (YEDA RESEARCH AND DEVELOPMENT, published 2004)
Ends that are not written are not given here.

Experiments:
[1] = biological target: T1, ErbB-2 expressed on transfected cells (32D derivative D2; CHO cells co-transfected with ErbB-4) (UniProt P04626 23-1255, limits assumed); assay: in vitro studies with engineered cell lines expressing all four ErbB proteins (FIGS. 3 to 5)
T1 construct: whole, on cells
Procedure: (§1) The indicated derivative lines of 32D cells were tested for cell proliferation using the [3-(4,5-dimethylthiazol-2-yl)-2,5-diphenyl]tetrazolium bromide (MTT) assay. […] The MTT assay was performed 24 hours later.
(§2) The indicated derivatives of 32D cells were incubated for various time intervals in the absence of IL-3. […] For control, cells were incubated with medium conditioned by IL-3-producing cells (open triangles), or with no factor (open circles). The extent of cell proliferation was determined daily by using the colorimetric MTT assay. The data presented are the mean±S.D. of 4 determinations.

[2] = biological target: T2, ErbB-3 expressed on transfected cells (32D derivative D3; CHO cells co-transfected with ErbB-4) (UniProt P21860 20-1342, limits assumed); assay: as above
T2 construct: whole, on cells
T2 sequence (P21860 20-1342 limits assumed): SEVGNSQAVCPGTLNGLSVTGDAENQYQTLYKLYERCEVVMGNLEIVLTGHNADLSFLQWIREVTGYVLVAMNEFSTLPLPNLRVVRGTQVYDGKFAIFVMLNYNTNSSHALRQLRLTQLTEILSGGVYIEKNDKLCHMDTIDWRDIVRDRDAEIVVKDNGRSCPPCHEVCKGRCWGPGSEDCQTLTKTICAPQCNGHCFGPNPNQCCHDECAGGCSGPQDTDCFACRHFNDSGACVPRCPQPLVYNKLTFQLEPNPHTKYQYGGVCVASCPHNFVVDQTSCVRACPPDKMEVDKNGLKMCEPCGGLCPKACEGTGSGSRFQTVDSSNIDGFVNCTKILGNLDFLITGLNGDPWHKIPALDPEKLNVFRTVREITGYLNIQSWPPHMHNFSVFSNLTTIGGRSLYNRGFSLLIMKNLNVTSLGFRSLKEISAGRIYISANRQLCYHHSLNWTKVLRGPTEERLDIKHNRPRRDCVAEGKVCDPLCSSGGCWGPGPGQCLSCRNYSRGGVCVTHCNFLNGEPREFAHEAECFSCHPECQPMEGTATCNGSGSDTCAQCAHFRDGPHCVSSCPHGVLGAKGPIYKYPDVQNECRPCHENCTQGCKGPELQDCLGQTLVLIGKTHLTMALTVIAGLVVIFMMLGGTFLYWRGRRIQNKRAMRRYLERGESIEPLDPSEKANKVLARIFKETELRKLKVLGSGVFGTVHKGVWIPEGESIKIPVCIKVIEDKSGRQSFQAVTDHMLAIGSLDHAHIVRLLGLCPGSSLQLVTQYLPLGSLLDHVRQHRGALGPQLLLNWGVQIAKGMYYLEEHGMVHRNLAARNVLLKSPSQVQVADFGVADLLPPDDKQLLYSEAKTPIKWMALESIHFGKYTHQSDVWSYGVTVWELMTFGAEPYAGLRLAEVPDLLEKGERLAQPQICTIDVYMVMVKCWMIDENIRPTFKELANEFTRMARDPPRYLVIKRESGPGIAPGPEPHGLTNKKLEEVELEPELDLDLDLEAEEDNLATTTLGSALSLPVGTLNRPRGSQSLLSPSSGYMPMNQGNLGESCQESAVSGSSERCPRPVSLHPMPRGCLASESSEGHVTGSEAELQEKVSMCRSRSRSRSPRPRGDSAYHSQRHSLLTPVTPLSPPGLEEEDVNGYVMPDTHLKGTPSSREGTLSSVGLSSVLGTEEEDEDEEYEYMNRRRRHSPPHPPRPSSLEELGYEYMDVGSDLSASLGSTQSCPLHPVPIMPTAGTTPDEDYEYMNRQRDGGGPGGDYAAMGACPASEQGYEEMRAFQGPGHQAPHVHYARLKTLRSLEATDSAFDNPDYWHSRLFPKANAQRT
Procedure: as §1, §2

[3] = biological target: T3, ErbB-1 expressed on transfected cells (32D derivative D1; CHO cells co-transfected with ErbB-4) (UniProt P00533 25-1210, limits assumed); assay: as above
T3 construct: whole, on cells; also called Epidermal Growth Factor Receptor
Procedure: as §1, §2

[4] = biological target: T4, ErbB-4 expressed on transfected cells (CHO cells; 32D derivatives D4 and D24) (UniProt Q15303 26-1308, limits assumed); assay: displacement of radiolabeled NRG-1β (5 ng/ml) from CHO cells expressing ErbB-4 by unlabeled ligand, 2 hours at 4 C
T4 construct: whole, on cells; also called surface-expressed ErbB-4
T4 sequence (Q15303 26-1308 limits assumed): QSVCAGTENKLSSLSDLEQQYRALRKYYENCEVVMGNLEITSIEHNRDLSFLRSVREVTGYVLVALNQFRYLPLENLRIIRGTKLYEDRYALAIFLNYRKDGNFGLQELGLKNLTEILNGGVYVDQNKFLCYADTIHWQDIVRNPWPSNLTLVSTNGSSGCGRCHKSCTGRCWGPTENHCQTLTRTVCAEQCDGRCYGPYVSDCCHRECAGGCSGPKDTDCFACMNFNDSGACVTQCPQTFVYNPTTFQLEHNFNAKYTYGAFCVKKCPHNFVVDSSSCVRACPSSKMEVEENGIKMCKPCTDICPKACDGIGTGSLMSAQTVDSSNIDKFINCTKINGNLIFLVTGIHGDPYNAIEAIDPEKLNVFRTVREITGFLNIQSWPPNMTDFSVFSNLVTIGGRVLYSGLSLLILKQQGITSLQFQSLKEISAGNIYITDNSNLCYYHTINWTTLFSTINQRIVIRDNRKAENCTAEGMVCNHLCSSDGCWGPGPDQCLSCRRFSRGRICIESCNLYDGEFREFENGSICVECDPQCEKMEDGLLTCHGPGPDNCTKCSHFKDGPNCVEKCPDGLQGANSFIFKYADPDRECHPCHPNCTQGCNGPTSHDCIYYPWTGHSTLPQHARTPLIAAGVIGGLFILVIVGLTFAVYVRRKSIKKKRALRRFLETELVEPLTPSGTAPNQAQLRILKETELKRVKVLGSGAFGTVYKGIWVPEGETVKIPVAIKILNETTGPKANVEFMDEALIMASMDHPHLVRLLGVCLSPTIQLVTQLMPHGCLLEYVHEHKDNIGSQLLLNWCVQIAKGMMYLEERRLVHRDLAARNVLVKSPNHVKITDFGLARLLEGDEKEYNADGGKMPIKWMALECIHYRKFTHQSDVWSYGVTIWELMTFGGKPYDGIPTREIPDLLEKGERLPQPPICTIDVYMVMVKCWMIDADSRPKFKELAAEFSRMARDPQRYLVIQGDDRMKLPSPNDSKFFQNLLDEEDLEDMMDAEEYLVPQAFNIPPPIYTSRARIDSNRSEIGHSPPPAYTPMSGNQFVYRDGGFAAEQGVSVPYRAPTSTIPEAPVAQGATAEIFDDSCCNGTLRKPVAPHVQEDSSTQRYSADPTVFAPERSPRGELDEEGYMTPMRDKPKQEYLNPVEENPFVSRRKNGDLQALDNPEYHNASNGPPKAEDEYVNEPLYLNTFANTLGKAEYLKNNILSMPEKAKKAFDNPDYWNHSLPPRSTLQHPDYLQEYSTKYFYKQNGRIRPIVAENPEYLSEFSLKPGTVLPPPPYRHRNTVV
Source text: (§3) Each data point represents the mean and range (bars) of two determinations.
(§4) To quantify the interaction, a ligand displacement analysis on ErbB-4-expressing CHO cells was undertaken.

[5] = biological target: T4, ErbB-4 expressed on transfected cells …; assay: displacement of radiolabeled NRG-1β (5 ng/ml) from CHO cells expressing ErbB-4 by unlabeled ligand; reference unlabeled NRG-1
Source text: as §3, §4

binding result [1]: no binding | binding result [2]: no binding | binding result [3]: no binding | Kd [4]: ~20 nM | fold lower binding affinity than NRG-1 [5]: ~8 fold
B1: synthetic refolded mouse EGF-like domain of NRG-4 (residues 4 to 50, SEQ ID NO:2) (ligand)
peptide: DHEQPCGPRHRSFCLNGGICYVIPTIPSPFCRCIENYTGARCEEVFL
modifications: disulfide (positions not given here); also: three disulfide bonds, pairing not given here
notes: Chemically synthesised, folded and fully oxidized (three predicted disulfide bonds); also called Neuregulin-4; the novel synthetic peptide
